In PMC2880568:

Molecular target: T1, EloBC (elongin B - elongin C heterodimer), Q15370
T1 chain 1: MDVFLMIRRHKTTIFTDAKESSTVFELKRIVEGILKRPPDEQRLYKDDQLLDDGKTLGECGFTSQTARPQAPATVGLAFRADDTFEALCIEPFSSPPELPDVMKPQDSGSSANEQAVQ
T1 chain 2: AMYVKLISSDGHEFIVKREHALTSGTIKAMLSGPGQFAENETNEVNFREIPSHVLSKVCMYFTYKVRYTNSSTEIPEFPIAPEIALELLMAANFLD
Assay: ITC

Q: How did the Kd turn out when HNKVGSLQYLALAAL (domain or fragment, modifications not checked) [Vif BC-box protein] was run?
A: 2200 nM
